The assay has as its target GFP-AtEH1/Pan1 (Arabidopsis) (UniProt Q9LM78). The experiment in a line: FRET or BRET; FRET-FLIM in N. benthamiana leaf cells transiently co-expressing the GFP donor and RFP acceptor fusions; GFP-AtEH1/Pan1 alone as donor control; whole field images. In general terms: In BRET a luciferase serves as donor, and the signal depends on an acceptor being close.
Chain of UniProt Q9LM78 (Q9LM78 entry or part of it): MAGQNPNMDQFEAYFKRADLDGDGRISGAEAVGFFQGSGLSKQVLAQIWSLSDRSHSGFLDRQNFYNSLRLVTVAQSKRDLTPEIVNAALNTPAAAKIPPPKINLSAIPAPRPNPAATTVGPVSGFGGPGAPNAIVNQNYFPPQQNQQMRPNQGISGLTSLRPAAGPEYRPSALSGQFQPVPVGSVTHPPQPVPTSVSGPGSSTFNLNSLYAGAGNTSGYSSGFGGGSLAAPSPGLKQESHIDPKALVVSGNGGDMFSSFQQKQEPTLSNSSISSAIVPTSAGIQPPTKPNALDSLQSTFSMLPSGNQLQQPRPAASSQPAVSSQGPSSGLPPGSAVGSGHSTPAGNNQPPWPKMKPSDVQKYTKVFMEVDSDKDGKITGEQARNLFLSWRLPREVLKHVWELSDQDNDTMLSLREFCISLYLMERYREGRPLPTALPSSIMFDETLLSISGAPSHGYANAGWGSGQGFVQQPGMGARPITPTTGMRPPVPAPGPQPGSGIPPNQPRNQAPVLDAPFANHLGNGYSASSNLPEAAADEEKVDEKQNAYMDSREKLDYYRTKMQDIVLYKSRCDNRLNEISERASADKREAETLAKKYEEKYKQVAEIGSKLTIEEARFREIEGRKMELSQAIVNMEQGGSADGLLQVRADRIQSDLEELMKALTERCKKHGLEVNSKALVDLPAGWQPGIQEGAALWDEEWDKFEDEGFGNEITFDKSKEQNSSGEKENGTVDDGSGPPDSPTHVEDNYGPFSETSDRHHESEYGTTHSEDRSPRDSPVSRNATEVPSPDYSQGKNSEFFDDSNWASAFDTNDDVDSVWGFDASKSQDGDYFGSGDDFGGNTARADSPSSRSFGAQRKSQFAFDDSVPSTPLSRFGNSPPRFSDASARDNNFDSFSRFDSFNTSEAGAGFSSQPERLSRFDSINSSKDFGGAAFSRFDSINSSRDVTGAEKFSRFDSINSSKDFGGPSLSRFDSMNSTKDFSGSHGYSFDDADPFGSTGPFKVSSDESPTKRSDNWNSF

RFP-AtEH2/Pan1 (natural protein): the fluorescence life-time of the GFP donor in the presence of the RFP acceptor stood at 2.45 ns.

Values taken from paper PMC6853982.
